Data on 1 molecule can be found in patent US20090202520A1.

The experiment addresses serum amyloid P (SAP) (human), P02743. Put plainly: SPR (Biacore X100), SAP on CM5 chip, soluble receptor flowed, single cycle kinetics, KD = Kd/Ka. To be noted: remark: other sources report otherwise. Background: SPR reads the build-up and loss of mass on a sensor chip optically.

Chain of serum amyloid P (SAP) (human), P02743 (P02743 20-223): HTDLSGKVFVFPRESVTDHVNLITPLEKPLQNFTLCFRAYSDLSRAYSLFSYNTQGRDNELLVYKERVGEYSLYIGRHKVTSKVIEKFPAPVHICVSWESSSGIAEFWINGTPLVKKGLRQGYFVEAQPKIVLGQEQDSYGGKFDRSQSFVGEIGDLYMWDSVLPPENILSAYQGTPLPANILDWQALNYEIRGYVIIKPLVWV

B1: soluble recombinant FcγRIIIB (sFcγRIIIB), O75015 17-200 (receptor, UniProt O75015 17-200, looked up, not shown: small tags and cut ends)
chain: GMRTEDLPKAVVFLEPQWYSVLEKDSVTLKCQGAYSPEDNSTQWFHNENLISSQASSYFIDAATVNDSGEYRCQTNLSTLSDPVQLEVHIGWLLLQAPRWVFKEEDPIHLRCHSWKNTALHKVTYLQNGKDRKYFHHNSDFHIPKATLKDSGSYFCRGLVGSKNVSSETVNITITQGLAVSTIS
For orientation: Kd means the constant that tells how readily two partners part at equilibrium. The molecule B1 showed a dissociation constant (Kd) of 0.4 nM.
